Experimental data published in patent publication US20020164762.
Substitutions are numbered along the chain they refer to. Names and notes keep the numbering of the source.

How the values were obtained:
[1] = biological target: T1, Acetyl-Asp-Glu-Val-Asp-pNA
T1 chain: DEVD

[2] = biological target: T2, Acetyl-Tyr-Val-Ala-Asp-pNA
T2 chain: YVAD

B1: D381E N-His ICE (D381E-modified human interleukin-1β converting enzyme, p20/p10, with N-terminal polyhistidine tag) (protein)
chain 1: HHHHHHNPAMPTSSGSEGNVKLCSLEEAQRIWKQKSAEIYPIMDKSSRTRLALIICNEEFDSIPRRTGAEVDITGMTMLLQNLGYSVDVKKNLTASDMTTELEAFAHRPEHKTSDSTFLVFMSHGIREGICGKKHSEQVPDILQLNAIFNMLNTKNCPSLKDKPKVIIIQACRGDSPGVVWFKD
chain 2: AIKKAHIEKDFIAFCSSTPDNVSWRHPTMGSVFIGRLIEHMQEYACSCDVEEIFRKVRFSFEQPEGRAQMPTTERVTLTRCFYLFPGH
With B1 the Km values [1] was 44 µM, the Vmax values (M^-1 s^-1) [1] was 0.08 and the Km values [2] was 43 µM. It also gave a Vmax values (M^-1 s^-1) [2] of 0.19.

B2: WT N-His ICE (wild-type human interleukin-1β converting enzyme, p20/p10, with N-terminal polyhistidine tag) (protein)
chain 1: B1 chain 1
chain 2: B1 chain 2 with E65D
For B2, the Km values [1] was 25 µM, the Vmax values (M^-1 s^-1) [1] was 0.02 and the Km values [2] was 26 µM. For the same protein, the Vmax values (M^-1 s^-1) [2] was 0.04.
